Measured values reported in patent publication US20230212319A1, “NOVEL ANTIGEN BINDING DOMAINS AND SYNTHETIC ANTIGEN RECEPTORS INCORPORATING THE SAME” (University of Southern California, priority 2020, published 2023).
“Also recorded” adds a separate entry of the source.

B1: 21882 (protein)
chain: MALPVTALLLPLALLLHAARPDIQMTQSPSSLSASVGDRVTITCKASQDVGTAVDWYQQKPGKAPKLLISWASTRHTGVPSRFSGSGSGTDFTLTISSLQPEDFATYFCQQYNSYPLTFGQGTKVEIKRTVLEDLKNVFPPEVAVFEPSEAEISHTQKATLVCLATGFYPDHVELSWWVNGKEVHSGVCTDPQPLKEQPALNDSRYCLSSRLRVSATFWQNPRNHFRCQVQFYGLSENDEWTQDRAKPVTQIVSAEAWGRADCGFTSESYQQGVLSATILYEILLGKATLYAVLVSALVLMAMVKRKDSRGRAKRSGSGATNFSLLKQAGDVEENPGPTSMDWIWRILFLVGAATGAHSFEVQLVESGGGLVQPGGSLRLSCAASGFTFTDYTIHWVRQAPGKGLEWVANINPNNGGTTYNQKFEDRFTISRDNSKNTLYLQMNSLRAEDTAVYYCARGWNFDYWGQGTLVTVSSTRIQNPDPAVYQLRDSKSSDKSVCLFTDFDSQTNVSQSKDSDVYITDKCVLDMRSMDFKSNSAVAWSNKSDFACANAFNNSIIPEDTFFPSPESSCDVKLVEKSFETDTNLNFQNLSVIGFRILLLKVAGFNLLMTLRLWSSRAKRSGSGVKQTLNFDLLKLAGDVESNPGPSRGHMTEYKPTVRLATRDDVPRAVRTLAAAFADYPATRHTVDPDRHIERVTELQELFLTRVGLDIGKVWVADDGAAVAVWTTPESVEAGAVFAEIGPRMAELSGSRLAAQQQMEGLLAPHRPKEPAWFLATVGVSPDHQGKGLGSAVVLPGVEAAERAGVPAFLETSAPRNLPFYERLGFTVTADVEVPEGPRTWCMTRKPGA
B2: 21884 (protein)
chain: MALPVTALLLPLALLLHAARPDIQMTQSPSSLSASVGDRVTITCKASQDVGTAVDWYQQKPGKAPKLLIYWASTRHTGVPSRFSGSGSGTDFTLTISSLQPEDFATYYCQQYNSYPLTFGQGTKVEIKRLETIFLPSIAETKLQKAGTYLCLLEKFFPDVIKIHWQEKKSNTILGSQEGNTMKTNDTYMKFSWLTVPEKSLDKEHRCIVRHENNKNGVDQEIIFPPIKTDVITMDPKDNCSKDANDTLLLQLTNTSAYYMYLLLLLKSVVYFAIITCCLLRRTAFCCNGEKSRAKRSGSGATNFSLLKQAGDVEENPGPTSMDWIWRILFLVGAATGAHSFEVQLVESGGGLVQPGGSLRLSCAASGYTFTEYTIHWVRQAPGKGLEWVANINPNNGGTTYNQKFEDRFTISRDNSKNTLYLQMNSLRAEDTAVYYCARGWNFDYWGQGTLVTVSSTRPHTKPSVFVMKNGTNVACLVKEFYPKDIRINLVSSKKITEFDPAIVISPSGKYNAVKLGKYEDSNSVTCSVQHDNKTVHSTDFEVKTDSTDHVKPKETENTKQPSKSCHKPKAIVHTEKVNMMSLTVLGLRMLFAKTVAVNFLLTAKLFFLRAKRSGSGVKQTLNFDLLKLAGDVESNPGPSRGHMTEYKPTVRLATRDDVPRAVRTLAAAFADYPATRHTVDPDRHIERVTELQELFLTRVGLDIGKVWVADDGAAVAVWTTPESVEAGAVFAEIGPRMAELSGSRLAAQQQMEGLLAPHRPKEPAWFLATVGVSPDHQGKGLGSAVVLPGVEAAERAGVPAFLETSAPRNLPFYERLGFTVTADVEVPEGPRTWCMTRKPGA
B3: 21892 (protein)
chain: MALPVTALLLPLALLLHAARPDIQMTQSPSSLSASVGDRVTITCKASQDVGTAVDWYQQKPGKAPKLLIYWASTRHTGVPSRFSGSGSGTDFTLTISSLQPEDFATYYCQQYNSYPLTFGQGTKVEIKRLEDLKNVFPPEVAVFEPSEAEISHTQKATLVCLATGFYPDHVELSWWVNGKEVHSGVCTDPQPLKEQPALNDSRYCLSSRLRVSATFWQNPRNHFRCQVQFYGLSENDEWTQDRAKPVTQIVSAEAWGRADCGFTSESYQQGVLSATILYEILLGKATLYAVLVSALVLMAMVKRKDSRGRAKRSGSGATNFSLLKQAGDVEENPGPTSMDWIWRILFLVGAATGAHSFEVQLVESGGGLVQPGGSLRLSCAASGYTFTEYTIHWVRQAPGKGLEWVANINPNNGGTTYNQKFEDRFTISRDNSKNTLYLQMNSLRAEDTAVYYCARGWNFDYWGQGTLVTVSSTRIQNPDPAVYQLRDSKSSDKSVCLFTDFDSQTNVSQSKDSDVYITDKCVLDMRSMDFKSNSAVAWSNKSDFACANAFNNSIIPEDTFFPSPESSCDVKLVEKSFETDTNLNFQNLSVIGFRILLLKVAGFNLLMTLRLWSSRAKRSGSGVKQTLNFDLLKLAGDVESNPGPSRGHMTEYKPTVRLATRDDVPRAVRTLAAAFADYPATRHTVDPDRHIERVTELQELFLTRVGLDIGKVWVADDGAAVAVWTTPESVEAGAVFAEIGPRMAELSGSRLAAQQQMEGLLAPHRPKEPAWFLATVGVSPDHQGKGLGSAVVLPGVEAAERAGVPAFLETSAPRNLPFYERLGFTVTADVEVPEGPRTWCMTRKPGA
B4: 21887 (protein)
chain: MALPVTALLLPLALLLHAARPDIQMTQSPSSLSASVGDRVTITCKASQDVGTAVDWYQQKPGKAPKLLIYWASTRHTGVPSRFSGSGSGTDFTLTISSLQPEDFATYYCQQYNSYPLTFGQGTKVEIKRLEPSEAEISHTQKATLVCLATGFYPDHVELSWWVNGKEVHSGVCTDPQPLKEQPALNDSRYCLSSRLRVSATFWQNPRNHFRCQVQFYGLSENDEWTQDRAKPVTQIVSAEAWGRADCGFTSESYQQGVLSATILYEILLGKATLYAVLVSALVLMAMVKRKDSRGRAKRSGSGATNFSLLKQAGDVEENPGPTSMDWIWRILFLVGAATGAHSFEVQLVESGGGLVQPGGSLRLSCAASGYTFTEYTIHWVRQAPGKGLEWVANINPNNGGTTYNQKFEDRFTISRDNSKNTLYLQMNSLRAEDTAVYYCARGWNFDYWGQGTLVTVSSTRDKSVCLFTDFDSQTNVSQSKDSDVYITDKCVLDMRSMDFKSNSAVAWSNKSDFACANAFNNSIIPEDTFFPSPESSCDVKLVEKSFETDTNLNFQNLSVIGFRILLLKVAGFNLLMTLRLWSSRAKRSGSGVKQTLNFDLLKLAGDVESNPGPSRGHMTEYKPTVRLATRDDVPRAVRTLAAAFADYPATRHTVDPDRHIERVTELQELFLTRVGLDIGKVWVADDGAAVAVWTTPESVEAGAVFAEIGPRMAELSGSRLAAQQQMEGLLAPHRPKEPAWFLATVGVSPDHQGKGLGSAVVLPGVEAAERAGVPAFLETSAPRNLPFYERLGFTVTADVEVPEGPRTWCMTRKPGA
B5: 21886 (protein)
chain: MALPVTALLLPLALLLHAARPDIQMTQSPSSLSASVGDRVTITCKASQDVGTAVDWYQQKPGKAPKLLIYWASTRHTGVPSRFSGSGSGTDFTLTISSLQPEDFATYYCQQYNSYPLTFGQGTKVEIKRLEAEISHTQKATLVCLATGFYPDHVELSWWVNGKEVHSGVCTDPQPLKEQPALNDSRYCLSSRLRVSATFWQNPRNHFRCQVQFYGLSENDEWTQDRAKPVTQIVSAEAWGRADCGFTSESYQQGVLSATILYEILLGKATLYAVLVSALVLMAMVKRKDSRGRAKRSGSGATNFSLLKQAGDVEENPGPTSMDWIWRILFLVGAATGAHSFEVQLVESGGGLVQPGGSLRLSCAASGYTFTEYTIHWVRQAPGKGLEWVANINPNNGGTTYNQKFEDRFTISRDNSKNTLYLQMNSLRAEDTAVYYCARGWNFDYWGQGTLVTVSSTRDKSVCLFTDFDSQTNVSQSKDSDVYITDKCVLDMRSMDFKSNSAVAWSNKSDFACANAFNNSIIPEDTFFPSPESSCDVKLVEKSFETDTNLNFQNLSVIGFRILLLKVAGFNLLMTLRLWSSRAKRSGSGVKQTLNFDLLKLAGDVESNPGPSRGHMTEYKPTVRLATRDDVPRAVRTLAAAFADYPATRHTVDPDRHIERVTELQELFLTRVGLDIGKVWVADDGAAVAVWTTPESVEAGAVFAEIGPRMAELSGSRLAAQQQMEGLLAPHRPKEPAWFLATVGVSPDHQGKGLGSAVVLPGVEAAERAGVPAFLETSAPRNLPFYERLGFTVTADVEVPEGPRTWCMTRKPGA

What follows are molecules tested on Huh-7 cells (assay: JNG NFAT-GFP induction on co-culture with Huh-7).
In the case of B1, the “NFAT-GFP ASSAY: Huh-7” value is reported as “negligible GFP induction”.
B2 was tested, and the “NFAT-GFP ASSAY: Huh-7” value was “negligible GFP induction”.
With B3 the “NFAT-GFP ASSAY: Huh-7” value was “negligible GFP induction”.
For B4, the “NFAT-GFP ASSAY: Huh-7” value was “negligible GFP induction”.
For B5, the “NFAT-GFP ASSAY: Huh-7” value was “negligible GFP induction; also recorded: negligible activity”.

Each molecule was assayed on KMH2 (PSMA-low) cells (assay: JNG NFAT-GFP induction on co-culture with KMH2).
With B1 the “NFAT-GFP ASSAY: KMH2” value was “negligible GFP induction”.
For B2, the “NFAT-GFP ASSAY: KMH2” value was “negligible GFP induction”.
In the case of B3, the “NFAT-GFP ASSAY: KMH2” value is reported as “negligible GFP induction”.
B4 was tested, and the “NFAT-GFP ASSAY: KMH2” value was “negligible GFP induction”.
In the case of B5, the “NFAT-GFP ASSAY: KMH2” value is reported as “negligible GFP induction; also recorded: negligible activity”.
